Blank lines part the entries; values can stand above or below the binder they belong to.
Molecular target: HLA-A*02-presented PRAME-004 (SEQ ID NO:97)
Test: cell-based or functional assay

- EC50 of IFNγ release from CD8+ T-cells with the TCR, T2 target cells loaded with PRAME-004 from 10 µM to 10 pM: 1.83 nM
B1: TCR R17P1D7 (TCR, V domains shown)
V domain 1: QTVTQSQPEMSVQEAETVTLSCTYDTSESDYYLFWYKQPPSRQMILVIRQEAYKQQNATENRFSVNFQKAAKSFSLKISDSQLGDAAMYFCAYRWAQGGSEKLVFGKGTKLTVNP
V domain 2: DIYQTPRYLVIGTGKKITLECSQTMGHDKMYWYQQDPGMELHLIHYSYGVNSTEKGDLSSESTVSRIRTEHFPLTLESARPSHTSQYLCATELWSSGGTGELFFGEGSRLTVLE

- EC50 of IFNγ release from CD8+ T-cells with the TCR, T2 target cells loaded with PRAME-004 from 10 µM to 10 pM: ~1 µM
B2: TCR R16P1E8 (TCR, V domains shown)
V domain 1: QKEVEQDPGPLSVPEGAIVSLNCTYSNSAFQYFMWYRQYSRKGPELLMYTYSSGNKEDGRFTAQVDKSSKYISLFIRDSQPSDSATYLCAMSEAAGNKLTFGGGTRVLVKP
V domain 2: EAGVAQSPRYKIIEKRQSVAFWCNPISGHATLYWYQQILGQGPKLLIQFQNNGVVDDSQLPKDRFSAERLKGVDSTLKIQPAKLEDSAVYLCASSYTNQGEAFFGQGTRLTVVE

Source: patent US20200123221A1 (IMMATICS BIOTECHNOLOGIES, published 2020)
